Experimental data: patent publication US20250019440A1 (Zymeworks, published 2025)

Key:
Human CLDN18.1 = molecular target: T1, Human CLDN18.1 (human, UniProt P56856 1-261); assay: flow cytometry, purified construct on transfected HEK293-6E cells
T1 construct: On transfected HEK293-6E cells

Cynomolgus monkey CLDN18 = molecular target: T2, Cynomolgus monkey CLDN18 (cynomolgus monkey); assay: FACS on transfected HEK293-6E cells, 4 parameter logistic fit
T2 construct: On transfected HEK293-6E cells; also called Cyno CLDN18; cynomologus monkey CLDN18.2 ortholog
T2 chain: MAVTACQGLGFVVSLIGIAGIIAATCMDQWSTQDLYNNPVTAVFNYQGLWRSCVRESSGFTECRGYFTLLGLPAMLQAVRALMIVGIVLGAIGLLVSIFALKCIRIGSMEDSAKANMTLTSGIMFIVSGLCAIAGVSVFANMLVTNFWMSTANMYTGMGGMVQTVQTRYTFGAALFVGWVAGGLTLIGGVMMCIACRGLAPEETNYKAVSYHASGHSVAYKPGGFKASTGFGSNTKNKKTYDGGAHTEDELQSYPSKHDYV

Human CLDN18.2 = molecular target: T3, Human CLDN18.2 (human); assay: as above
T3 construct: On transfected HEK293-6E cells; also called Claudin18.2

Mouse CLDN18 A2.1 = molecular target: T4, Mouse CLDN18 A2.1 (mouse, UniProt P56857 10-264); assay: as above
T4 construct: On transfected HEK293-6E cells; also called Mouse CLDN18 2.1; mouse CLDN18.2 ortholog
T4 chain: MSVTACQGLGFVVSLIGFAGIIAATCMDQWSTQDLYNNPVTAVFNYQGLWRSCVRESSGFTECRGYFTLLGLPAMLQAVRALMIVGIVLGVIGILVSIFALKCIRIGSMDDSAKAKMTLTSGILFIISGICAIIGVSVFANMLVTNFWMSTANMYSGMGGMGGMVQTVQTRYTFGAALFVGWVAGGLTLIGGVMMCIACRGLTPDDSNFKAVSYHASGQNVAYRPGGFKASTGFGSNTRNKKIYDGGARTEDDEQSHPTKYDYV

T1 sequence (P56856 whole entry): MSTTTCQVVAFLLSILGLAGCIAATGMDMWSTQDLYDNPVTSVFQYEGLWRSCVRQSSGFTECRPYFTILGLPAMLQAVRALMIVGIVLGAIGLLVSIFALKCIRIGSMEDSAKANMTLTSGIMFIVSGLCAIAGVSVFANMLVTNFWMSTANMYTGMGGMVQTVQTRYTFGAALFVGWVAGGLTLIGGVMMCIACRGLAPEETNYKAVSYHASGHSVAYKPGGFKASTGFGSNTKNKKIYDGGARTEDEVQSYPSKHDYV

binding result (Human CLDN18.1): no binding | Bmax (Cynomolgus monkey CLDN18): 1660 | EC50 (Cynomolgus monkey CLDN18): 0.48 nM | Bmax (Human CLDN18.2): 2070 | EC50 (Human CLDN18.2): 1.29 nM | Bmax (Mouse CLDN18 A2.1): 1640 | EC50 (Mouse CLDN18 A2.1): 0.87 nM
B1: v35777 (antibody, human IgG1, V domains shown)
VH: QSLEESGGRLVTPGTPLTLTCTVSGIDLSSNPMIWVRQAPGKGLQYIGIIDTDGSTYYASWAKGRFTGSKTSTTVDLKITSPTTEDTATYFCARRLHGSSNGYYDDLWGQGTLVTISS
VL: DGVMTQTPSSVSAAVGGTVTIKCQASQSIYSYLSWYQQKPGQRPKLLIYKASTLASGVPSRFKGSGSGTEFTLTISGVQCDDAATYYCQQGYTVTNVDKNTFGGGTEVVVK
notes: Rabbit variable regions on human IgG1 (constant region starts at alanine Kabat-114) and human C kappa (starts at arginine Kabat-108); also called parental rabbit chimeric; rabbit-human chimeric IgG1/kappa antibody construct
